This is an account of results in PMC3983144 (Bioconjugate chemistry, 2014).

Square brackets hold non-standard residues; d marks the D form. Nle = CCCC[C@H](N)C(=O)O

This assay concerns the target melanocortin 1 receptor (mouse (endogenous in B16F10), UniProt Q01727 1-315). Nature of the assay: radioligand binding.

Sequence of melanocortin 1 receptor (Q01727 whole entry, one chain of several): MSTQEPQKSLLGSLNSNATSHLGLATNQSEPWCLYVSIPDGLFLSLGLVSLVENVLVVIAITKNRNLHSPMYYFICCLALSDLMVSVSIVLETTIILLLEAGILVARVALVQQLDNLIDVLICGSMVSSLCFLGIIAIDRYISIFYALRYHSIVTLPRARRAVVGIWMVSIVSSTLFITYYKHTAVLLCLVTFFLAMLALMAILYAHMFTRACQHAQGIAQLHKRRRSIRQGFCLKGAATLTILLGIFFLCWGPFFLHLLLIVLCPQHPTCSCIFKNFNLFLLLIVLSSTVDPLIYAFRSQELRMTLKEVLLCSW

B1: Ac-Cys-Nle-Asp-His-D-Phe-Arg-Trp-Gly-Lys-NH2 (peptide)
chain: Ac-C[Nle]DH[dF]RWGK-NH2
SMILES: CCCC[C@H](NC(=O)[C@H](CS)NC(C)=O)C(=O)N[C@@H](CC(=O)O)C(=O)N[C@@H](Cc1c[nH]cn1)C(=O)N[C@H](Cc1ccccc1)C(=O)N[C@@H](CCCNC(=N)N)C(=O)N[C@@H](Cc1c[nH]c2ccccc12)C(=O)NCC(=O)N[C@@H](CCCCN)C(N)=O
Regarding B1, the IC50 was 2.19 ± 0.54 nM.
